The record followed here is article PMC10912698.

Test [1] deals with TssZ-HA (TssZ fused with a HA tag at its carboxyl-terminal) (Pseudomonas aeruginosa PAO1). Kind of test: co-IP; PAO1 lysate co-expressing TssZ-HA (or TssZ^R5A/R9A) and V5-HinK; Anti-HA Affinity Gel, 2 h at 4 °C, 50 mM Tris-HCl pH 8.0, 150 mM NaCl, 0.05% TWEEN-20; blots with anti-V5 and anti-HA; also in strains overexpressing PA2133 (low c-di-GMP) or WspR (high c-di-GMP) and with 0-6.4 μM exogenous c-di-GMP.

The target in test [2] is TssZ^R5A/R9A (non-c-di-GMP-binding mutant) as used in the co-IP (Pseudomonas aeruginosa PAO1). Described as above.

“V5-HinK (HinK fused with V5 tag at its amino-terminal) (natural protein)” registered a fold change of co-immunoprecipitated V5-HinK, low c-di-GMP lysate (PA2133 overexpressing strain) against the PAO1 control strain in test [1] of 2.2 fold. In addition, the fold change of co-immunoprecipitated V5-HinK against wild-type TssZ in test [2] is 3.3 fold.
